Data on one molecule can be found in US20240011997A1 (NORDIC BIOSCIENCE A S, published 2024).

In assay [1] the target is T1, Elongated peptide LPGGYGLPYTT (human).
T1 construct: Standard peptide extended by one threonine at the C-terminus; also called C-extended elongated version
T1 peptide: LPGGYGLPYTT
In words: Competitive ELISA on coated Biotin-LPGGYGLPYT
The method, then: (§1) Based on the collected antibodies the ELP-3 assay was developed as competitive ELISA assay. A 96-well streptavidin-coated microtiter plate (Roche, Basel, Switzerland) was coated with 100 ul biotinylated screening peptide (Biotin-[…] (SEQ ID NO: 5)) dissolved in assay buffer for 30 min at 20° C. with shaking. Plates were washed five times in washing buffer (20 mM TRIS, 50 mM NaCl, pH 7). Sample/standard/control (20 ul) was added and followed by addition of (100 ul) monoclonal antibody and incubated for 3 h at 4° C. with shaking. After incubation, plates were washed five times in washing buffer. A volume of 100 ul of secondary HRP labeled goat anti-mouse antibody was added followed by 1 h incubation at 20° C. with shaking. Plates were then washed and TMB was added and the plate was analyzed by a SpectraMax M reader (Molecular Devices, Ca, USA) at 450 nm with 650 nm as the reference. A standard curve was plotted using a 4-parametric mathematical fit model. Each ELISA plate included kit controls to monitor inter-assay variation. All samples were measured within the range of the assay. All samples below the level of lower limit of quantification (LLOQ) were assigned the value of LLOQ.
(§2) Supernatants from antibody producing hybridomas were screened for reactivity against standard peptide, elongated peptide, and truncated peptide in an indirect ELISA. The peptide Biotin-[…] […]

Assay [2] has as its target T2, non-sense peptide PGGVPGGVFY
T2 construct: Control peptide in the specificity test
T2 peptide: PGGVPGGVFY
In words: Competitive ELISA on coated Biotin-…. The method, then: as §1, §2
(In general: ELISA stands for enzyme-linked immunosorbent assay.)

Assay [3] has as its target T3, intact elastin (Sigma, E7152) (human, UniProt P15502 27-786, limits assumed).
T3 construct: Uncleaved elastin control of the in vitro cleavage experiment
T3 sequence (looked up): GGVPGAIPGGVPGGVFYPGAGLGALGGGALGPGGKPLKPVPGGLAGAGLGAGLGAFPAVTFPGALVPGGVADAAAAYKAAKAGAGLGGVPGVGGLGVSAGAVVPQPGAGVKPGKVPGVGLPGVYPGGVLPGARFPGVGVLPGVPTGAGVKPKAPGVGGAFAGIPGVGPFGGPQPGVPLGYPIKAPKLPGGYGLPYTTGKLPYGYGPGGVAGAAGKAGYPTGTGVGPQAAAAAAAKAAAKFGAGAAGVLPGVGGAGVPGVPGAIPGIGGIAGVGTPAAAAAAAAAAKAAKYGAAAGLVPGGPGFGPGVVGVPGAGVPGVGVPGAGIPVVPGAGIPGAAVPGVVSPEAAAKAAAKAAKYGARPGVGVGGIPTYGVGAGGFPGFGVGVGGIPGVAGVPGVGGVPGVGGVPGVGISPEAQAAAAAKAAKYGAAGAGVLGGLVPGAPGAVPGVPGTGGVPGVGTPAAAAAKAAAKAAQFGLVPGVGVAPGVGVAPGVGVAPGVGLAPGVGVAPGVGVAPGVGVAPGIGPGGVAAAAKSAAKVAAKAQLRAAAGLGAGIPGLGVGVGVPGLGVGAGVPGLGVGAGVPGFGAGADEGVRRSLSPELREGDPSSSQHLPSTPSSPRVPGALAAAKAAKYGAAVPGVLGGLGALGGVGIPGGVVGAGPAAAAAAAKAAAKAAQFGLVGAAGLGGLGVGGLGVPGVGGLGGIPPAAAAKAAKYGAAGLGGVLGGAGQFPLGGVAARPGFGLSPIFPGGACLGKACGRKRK
The assay is described as follows: ELP-3 competitive ELISA on in vitro cleavage samples.

Assay [4] has as its target T4, Proteinase 3 (PR3; EPC ML734) (UniProt P24158 28-248).
T4 construct: also called protease control
T4 sequence (looked up): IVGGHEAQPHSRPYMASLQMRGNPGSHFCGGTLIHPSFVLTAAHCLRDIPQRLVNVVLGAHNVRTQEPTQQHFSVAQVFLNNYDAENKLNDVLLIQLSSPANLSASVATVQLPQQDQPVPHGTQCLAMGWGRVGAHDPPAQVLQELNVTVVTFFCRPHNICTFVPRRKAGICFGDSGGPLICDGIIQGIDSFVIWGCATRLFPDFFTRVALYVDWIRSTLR
The description is as above.

Assay [5] has as its target T5, Human neutrophil elastase (HNE) protein (Abcam, ab91099) (human, UniProt P08246 30-247, limits assumed).
T5 construct: also called protease control
T5 sequence (looked up): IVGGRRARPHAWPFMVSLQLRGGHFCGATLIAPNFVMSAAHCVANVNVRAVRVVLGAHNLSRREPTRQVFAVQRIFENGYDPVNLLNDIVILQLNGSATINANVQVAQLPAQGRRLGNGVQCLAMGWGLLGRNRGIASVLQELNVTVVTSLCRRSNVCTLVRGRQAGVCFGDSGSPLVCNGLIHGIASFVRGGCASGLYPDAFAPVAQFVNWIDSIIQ
Described as above.

Assay [6] has as its target T6, Standard peptide LPGGYGLPYT (human).
T6 construct: Synthetic decapeptide with a free C-terminus; also called calibrator peptide; selection peptide
T6 peptide: LPGGYGLPYT-OH
The assay is described as follows: Indirect or competitive ELISA with the standard peptide as calibrator.

Ends that are not written are not given here.

B1: monoclonal antibody clone NBH116/6A10-E7-D12 (antibody, mouse IgG1, kappa, V domains shown)
VH: EVKLVESGGGLVQPGDSLRLSCATSGFTFTDYYMSWVRQPPGKALEWLGFIRNKANGYTTEYSASVKGRFTISRDNSQSILYLQMNTLRAEDSATYYCARDIITTPSWFGYWGQGTLVTVSA
VL: DIQMNQSPSSLSASLGDTITITCHASQNINVWLSWYQQKPGNIPKLLIYKASNLHTGVPSRFSGSGSGTGFTLTISSLQPEDIATYYCQQGQSYPLTFGAGTKLELKR
notes: also called ELP-3 antibody; the selected antibody
Take B1: the binding result is “no binding” in assay [1]; “no binding” in assay [2]; “no binding” in assay [3]; “no binding” in assay [4]; “no binding” in assay [5]; “binds” in assay [6].
